From paper doi:10.1101/2023.04.06.535761 (bioRxiv, 2023) come the findings set out here.

Test [1] has as its target T1, RTCB (un-guanylylated, apo-RTCB) (human, UniProt Q9Y3I0 1-505).
T1 sequence (looked up): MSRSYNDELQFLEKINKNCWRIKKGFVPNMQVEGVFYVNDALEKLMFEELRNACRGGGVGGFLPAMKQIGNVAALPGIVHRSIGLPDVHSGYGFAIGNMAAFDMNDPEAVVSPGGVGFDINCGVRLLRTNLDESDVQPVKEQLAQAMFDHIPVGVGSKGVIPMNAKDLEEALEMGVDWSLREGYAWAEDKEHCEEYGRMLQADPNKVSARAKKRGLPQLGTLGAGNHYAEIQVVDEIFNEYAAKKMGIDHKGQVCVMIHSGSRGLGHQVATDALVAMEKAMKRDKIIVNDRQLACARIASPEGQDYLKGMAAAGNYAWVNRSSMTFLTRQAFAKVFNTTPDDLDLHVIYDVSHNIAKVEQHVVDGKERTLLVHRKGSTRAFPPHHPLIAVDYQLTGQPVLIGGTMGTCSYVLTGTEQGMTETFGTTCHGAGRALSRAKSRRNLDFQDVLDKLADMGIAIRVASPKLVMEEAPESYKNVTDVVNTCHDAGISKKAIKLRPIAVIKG
Put plainly: cryo-EM structure.

In test [2] the target is T2, StrepII-GFP-RTCB (human, UniProt Q9Y3I0 1-505).
T2 sequence (looked up): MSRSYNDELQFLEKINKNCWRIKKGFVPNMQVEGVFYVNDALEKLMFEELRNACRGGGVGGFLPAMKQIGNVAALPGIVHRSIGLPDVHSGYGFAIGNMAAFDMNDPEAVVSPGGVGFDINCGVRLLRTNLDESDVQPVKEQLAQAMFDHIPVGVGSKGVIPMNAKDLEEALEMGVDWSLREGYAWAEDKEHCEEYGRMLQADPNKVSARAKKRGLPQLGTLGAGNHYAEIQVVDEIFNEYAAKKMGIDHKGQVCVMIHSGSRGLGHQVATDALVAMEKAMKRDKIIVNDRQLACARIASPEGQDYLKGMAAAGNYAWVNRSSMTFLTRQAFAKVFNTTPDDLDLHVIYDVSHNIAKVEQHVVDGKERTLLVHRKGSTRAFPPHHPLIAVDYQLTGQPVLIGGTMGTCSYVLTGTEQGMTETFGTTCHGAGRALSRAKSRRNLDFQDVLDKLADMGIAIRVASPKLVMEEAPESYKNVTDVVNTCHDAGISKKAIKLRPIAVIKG
Put plainly: pull-down.

Test [3] deals with T2, StrepII-GFP-RTCB. Put plainly: pull-down. The source holds these as a separate data set.

B1: PYROXD1 (wild type) (enzyme, human, UniProt Q8WU10 1-500, looked up)
chain: MEAARPPPTAGKFVVVGGGIAGVTCAEQLATHFPSEDILLVTASPVIKAVTNFKQISKILEEFDVEEQSSTMLGKRFPNIKVIESGVKQLKSEEHCIVTEDGNQHVYKKLCLCAGAKPKLICEGNPYVLGIRDTDSAQEFQKQLTKAKRIMIIGNGGIALELVYEIEGCEVIWAIKDKAIGNTFFDAGAAEFLTSKLIAEKSEAKIAHKRTRYTTEGRKKEARSKSKADNVGSALGPDWHEGLNLKGTKEFSHKIHLETMCEVKKIYLQDEFRILKKKSFTFPRDHKSVTADTEMWPVYVELTNEKIYGCDFIVSATGVTPNVEPFLHGNSFDLGEDGGLKVDDHMHTSLPDIYAAGDICTTSWQLSPVWQQMRLWTQARQMGWYAAKCMAAASSGDSIDMDFSFELFAHVTKFFNYKVVLLGKYNAQGLGSDHELMLRCTKGREYIKVVMQNGRMMGAVLIGETDLEETFENLILNQMNLSSYGEDLLDPNIDIEDYFD
In general, stoichiometry N refers to a count of units in the complex or per binding partner. Turning to B1, in test [1], the “stoichiometry N” value amounted to 1. In the test with StrepII-GFP-RTCB [2], the “half-life of the complex upon NADH removal” value was about 2 min.

B2: PYROXD1 D500A (enzyme, human, UniProt Q8WU10 1-500, looked up)
chain: MEAARPPPTAGKFVVVGGGIAGVTCAEQLATHFPSEDILLVTASPVIKAVTNFKQISKILEEFDVEEQSSTMLGKRFPNIKVIESGVKQLKSEEHCIVTEDGNQHVYKKLCLCAGAKPKLICEGNPYVLGIRDTDSAQEFQKQLTKAKRIMIIGNGGIALELVYEIEGCEVIWAIKDKAIGNTFFDAGAAEFLTSKLIAEKSEAKIAHKRTRYTTEGRKKEARSKSKADNVGSALGPDWHEGLNLKGTKEFSHKIHLETMCEVKKIYLQDEFRILKKKSFTFPRDHKSVTADTEMWPVYVELTNEKIYGCDFIVSATGVTPNVEPFLHGNSFDLGEDGGLKVDDHMHTSLPDIYAAGDICTTSWQLSPVWQQMRLWTQARQMGWYAAKCMAAASSGDSIDMDFSFELFAHVTKFFNYKVVLLGKYNAQGLGSDHELMLRCTKGREYIKVVMQNGRMMGAVLIGETDLEETFENLILNQMNLSSYGEDLLDPNIDIEDYFA
In the case of B2, in the test with StrepII-GFP-RTCB [3], the binding result is recorded as “binds”.

B3: PYROXD1 Δ500 (domain or fragment, human, UniProt Q8WU10 1-499, looked up)
chain: MEAARPPPTAGKFVVVGGGIAGVTCAEQLATHFPSEDILLVTASPVIKAVTNFKQISKILEEFDVEEQSSTMLGKRFPNIKVIESGVKQLKSEEHCIVTEDGNQHVYKKLCLCAGAKPKLICEGNPYVLGIRDTDSAQEFQKQLTKAKRIMIIGNGGIALELVYEIEGCEVIWAIKDKAIGNTFFDAGAAEFLTSKLIAEKSEAKIAHKRTRYTTEGRKKEARSKSKADNVGSALGPDWHEGLNLKGTKEFSHKIHLETMCEVKKIYLQDEFRILKKKSFTFPRDHKSVTADTEMWPVYVELTNEKIYGCDFIVSATGVTPNVEPFLHGNSFDLGEDGGLKVDDHMHTSLPDIYAAGDICTTSWQLSPVWQQMRLWTQARQMGWYAAKCMAAASSGDSIDMDFSFELFAHVTKFFNYKVVLLGKYNAQGLGSDHELMLRCTKGREYIKVVMQNGRMMGAVLIGETDLEETFENLILNQMNLSSYGEDLLDPNIDIEDYF
For B3, the binding result in the test with StrepII-GFP-RTCB [3] is given as “binds”.
